Measurements taken from patent US20220098305A1 (Hoffmann-La Roche, published 2022).
Substitutions are numbered along the chain they refer to. Blank lines part the entries; values can stand above or below the binder they belong to.

Key:
[1] = target: T1, human ICOS (human, UniProt Q9Y6W8 21-199); assay: flow cytometry, SR cells
T1 construct: The cell that carries it is named under assay; also called huICOS; CD278
T1 sequence: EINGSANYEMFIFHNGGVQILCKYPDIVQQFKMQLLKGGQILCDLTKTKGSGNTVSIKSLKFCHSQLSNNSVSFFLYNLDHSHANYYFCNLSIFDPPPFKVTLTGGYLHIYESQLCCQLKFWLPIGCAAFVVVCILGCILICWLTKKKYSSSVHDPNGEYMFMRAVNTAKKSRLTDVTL

[2] = target: T2, human FAP (human, UniProt Q12884 1-760); assay: flow cytometry, NIH/3T3-huFAP clone 19 cells
T2 construct: also called hu FAP

[3] = target: T1, human ICOS; assay: flow cytometry on SR cells expressing human ICOS, geometric MFI
[4] = target: T1, human ICOS; assay: flow cytometry, CHO cells expressing human ICOS
Procedure: (§1) Briefly, suspension cells were harvested, counted, checked for viability and re-suspended at 1 million cells per ml in FACS buffer (PBS with 0.1% BSA). […] The staining was fixed for 20 min at 4° C. in the dark, using 75 μl of 1% PFA in FACS buffer per well.
(§2) Fluorescence was analyzed by FACS using a FACS Fortessa (Software FACS Diva). Binding curves and EC50 values were obtained using GraphPadPrism 7.

[5] = target: T1, human ICOS; assay: flow cytometry on CHO cells stably expressing human ICOS, PE-labelled secondary antibody, median fluorescence intensity (MFI)
Procedure: as §1, §2

[6] = target: T1, human ICOS; assay: cell-based or functional assay
[7] = target: T1, human ICOS; assay: flow cytometry, CHO cells expressing human ICOS; remark: listed apart in the source
[8] = target: T1, human ICOS; assay: flow cytometry on CHO cells expressing human ICOS, PE-labelled secondary antibody; y axis printed LOG10(MFI PE)

B1: Molecule 21, bispecific 2+1 anti-ICOS (1143v1)/anti-FAP (4B9) huIgG1 P329GLALA kih (bispecific antibody)
heavy 1: QSLEESGGDLVKPGASLTLTCKASGFDFSSAYDMSWVRQAPGKGLEWIGVVYYGDGITYYATWAKGRFTISKTSSTTVPLQMTSLTAADTATYFCARGAFLGSSYYLSLWGQGTLVTVSSASTKGPSVFPLAPSSKSTSGGTAALGCLVKDYFPEPVTVSWNSGALTSGVHTFPAVLQSSGLYSLSSVVTVPSSSLGTQTYICNVNHKPSNTKVDKKVEPKSCDKTHTCPPCPAPEAAGGPSVFLFPPKPKDTLMISRTPEVTCVVVDVSHEDPEVKFNWYVDGVEVHNAKTKPREEQYNSTYRVVSVLTVLHQDWLNGKEYKCKVSNKALGAPIEKTISKAKGQPREPQVCTLPPSRDELTKNQVSLSCAVKGFYPSDIAVEWESNGQPENNYKTTPPVLDSDGSFFLVSKLTVDKSRWQQGNVFSCSVMHEALHNHYTQKSLSLSPGGGGGSGGGGSGGGGSGGGGSEIVLTQSPGTLSLSPGERATLSCRASQSVTSSYLAWYQQKPGQAPRLLINVGSRRATGIPDRFSGSGSGTDFTLTISRLEPEDFAVYYCQQGIMLPPTFGQGTKVEIK
heavy 2: not shown
light: AIDMTQTPASVEAAVGGTVTINCQASENIYNWLAWYQQKPGQPPKLLIYDASKLASGVPSRFSASGSGTQFTLTISAVESADAATYYCQQAYTYGNIDNAFGGGTEVVVSRTVAAPSVFIFPPSDEQLKSGTASVVCLLNNFYPREAKVQWKVDNALQSGNSQESVTEQDSKDSTYSLSSTLTLSKADYEKHKVYACEVTHQGLSSPVTKSFNRGEC
EC50 [1]: 0.00057 nM | EC50 [2]: 0.00501 nM | EC50 (read off the curve) [3]: ~0.5 nM

B2: Molecule 44, bispecific 2+1 anti-ICOS (1143)/anti-FAP (4B9) huIgG1 P329GLALA kih (bispecific antibody)
heavy 1: B1 heavy 1 with V50S
heavy 2: not shown
light: B1 light
EC50 [1]: 0.00217 nM | EC50 [2]: 0.00434 nM | EC50 (read off the curve) [3]: ~2 nM

B5: Molecule 29 (ICOS H1143v2_1) (antibody, human IgG1, kappa, L234A L235A, V domains shown)
VH: EVQLLESGGGLVQPGGSLRLSCAASGFDFSSAYDMSWVRQAPGKGLEWVSVIYYGDGITYYADSVKGRFTISRDNSKNTLYLQMNSLRAEDTAVYFCARGAFLGSSYYLSLWGQGTLVTVSS
VL: DIQMTQSPSSLSASVGDRVTITCRASENIYNWLAWYQQKPGKAPKLLIYDASKLASGVPSRFSGSGSGTDFTLTISSLQPEDFATYYCQQAYTYGNIDNAFGGGTKVEIKR
notes: Human IgG format
EC50 of activation of Jurkat-NFAT reporter cell line [6]: 27.6 nM | Max (Counts/sec), Jurkat-NFAT reporter cell line [6]: 63800 Counts/sec | EC50 [7]: 5.2 nM | Max (Log10(MFI)) [7]: 2.38 Log10(MFI) | EC50 (read off the curve) [8]: ~6 nM

Further lines, results first:

EC50 [4]: 0.0023 nM | EC50 (read off the curve) [5]: ~2 nM
B3: Molecule 1 (JMab136 IgG) (antibody, V domains shown)
VH: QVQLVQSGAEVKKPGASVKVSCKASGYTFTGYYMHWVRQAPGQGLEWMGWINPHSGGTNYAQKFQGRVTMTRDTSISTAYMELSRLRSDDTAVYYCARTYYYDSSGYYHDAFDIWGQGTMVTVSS
VL: DIQMTQSPSSVSASVGDRVTITCRASQGISRLLAWYQQKPGKAPKLLIYVASSLQSGVPSRFSGSGSGTDFTLTISSLQPEDFATYYCQQANSFPWTFGQGTKVEIK
notes: IgG

EC50 of activation of Jurkat-NFAT reporter cell line [6]: ~7.99 nM | Max (Counts/sec), Jurkat-NFAT reporter cell line [6]: 47400 Counts/sec | EC50 [7]: 2.7 nM | Max (Log10(MFI)) [7]: 6.85 Log10(MFI)
B4: Molecule 27 (ICOS H009v1_3) (antibody, human IgG1, kappa, L234A L235A, V domains shown)
VH: EVQLVESGGGLVQPGRSLRLSCTASGFTFSDYWMNWVRQAPGKGLEWVAQIRNKPYNYETYYAASVKGRFTISRDDSKSIAYLQMNSLKTEDTAVYYCTWPRLRSSDWHFDVWGKGTTVTVSS
VL: DIQMTQSPSSLSASVGDRVTITCQASQDINKNIAWYQQKPGKAPKLLIWYTSTLQTGVPSRFSGSGSGTDFTFTISSLQPEDIATYYCLQFDNLYTFGQGTKLEIKR
notes: Human IgG format

EC50 of activation of Jurkat-NFAT reporter cell line [6]: 29.4 nM | Max (Counts/sec), Jurkat-NFAT reporter cell line [6]: 55300 Counts/sec | EC50 [7]: 2.25 nM | Max (Log10(MFI)) [7]: 2.75 Log10(MFI) | EC50 (read off the curve) [8]: ~2 nM
B6: Molecule 30 (ICOS H1143v2_2) (antibody, human IgG1, kappa, L234A L235A, V domains shown)
VH: B5 VH with R73K, D74T, N75S, N78T
VL: B5 VL
notes: Human IgG format

EC50 of activation of Jurkat-NFAT reporter cell line [6]: 28 nM | Max (Counts/sec), Jurkat-NFAT reporter cell line [6]: 52300 Counts/sec | EC50 [7]: 2.56 nM | Max (Log10(MFI)) [7]: 4.88 Log10(MFI) | EC50 (read off the curve) [8]: ~3 nM
B7: Molecule 28 (ICOS 1143v2) (antibody, human IgG1, kappa, L234A L235A, V domains shown)
VH: QSLEESGGDLVKPGASLTLTCKASGFDFSSAYDMSWVRQAPGKGLEWIGVIYYGDGITYYATSVKGRFTISKTSSTTVPLQMTSLTAADTATYFCARGAFLGSSYYLSLWGQGTLVTVSS
VL: AIDMTQTPASVEAAVGGTVTINCQASENIYNWLAWYQQKPGQPPKLLIYDASKLASGVPSRFSASGSGTQFTLTISAVESADAATYYCQQAYTYGNIDNAFGGGTEVVVSR
notes: Human IgG format; also called parent antibody of Molecules 29-31
